Where a chain is given by its changes, count along the chain named.
T1: circulating APOL1 in normal human serum (human, UniProt O14791 28-398)
T1 construct: mature; Serum of healthy volunteers; lipoprotein-associated; also called serum APOL1; HDL APOL1
T1 sequence (looked up): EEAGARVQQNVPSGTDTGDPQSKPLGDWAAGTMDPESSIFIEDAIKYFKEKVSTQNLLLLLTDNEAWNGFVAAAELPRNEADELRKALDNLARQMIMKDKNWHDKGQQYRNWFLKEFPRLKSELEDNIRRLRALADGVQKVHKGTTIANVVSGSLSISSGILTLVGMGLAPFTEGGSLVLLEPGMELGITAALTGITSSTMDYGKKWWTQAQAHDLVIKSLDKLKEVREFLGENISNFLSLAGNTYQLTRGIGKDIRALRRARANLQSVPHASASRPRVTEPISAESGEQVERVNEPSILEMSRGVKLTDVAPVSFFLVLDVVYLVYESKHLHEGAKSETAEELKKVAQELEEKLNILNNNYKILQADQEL

T2: untagged APOL1-G0, KIK variant, transiently expressed (COS cells) (human, UniProt O14791 29-398)
T2 construct: Origene SC109941 clone with E150K, M228I, R255K
T2 chain: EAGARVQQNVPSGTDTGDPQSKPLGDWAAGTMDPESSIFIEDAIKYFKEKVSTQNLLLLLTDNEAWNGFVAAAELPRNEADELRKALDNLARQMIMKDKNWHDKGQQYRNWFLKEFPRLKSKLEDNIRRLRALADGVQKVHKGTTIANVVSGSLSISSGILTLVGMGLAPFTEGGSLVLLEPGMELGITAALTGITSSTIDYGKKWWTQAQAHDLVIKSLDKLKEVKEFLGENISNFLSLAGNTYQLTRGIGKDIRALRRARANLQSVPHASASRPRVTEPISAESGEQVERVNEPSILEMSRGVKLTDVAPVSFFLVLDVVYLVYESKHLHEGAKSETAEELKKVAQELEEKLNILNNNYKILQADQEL

B1: rabbit monoclonal antibody 5.17D12 (antibody, V domains shown)
VH: QSLEESGGDLVKPGASLTLTCTASGFSFSSNYYMCWVRQAPGKGLEWIACVYVGSGGSTYYASWAKGRFTFSKTSSTTWTLQMTSLTAADTATYFCARDLSYAGDLWGPGTLVTVSS
VL: DPVMTQTPASVSEPVGGTVTINCQASESISSYLAWYQQKPGQPPKLLIYGASNLASGVPSRFKGSGSGTEYTLTISDLECDDAATYYCQSAYYSNSGGHAFGGGTEVVVKG
notes: Rabbit mAb (Method #5), recombinant; also called rabmab 5.17D12
B2: antibody 4.17A5 (antibody, V domains shown)
VH: QVQLQQSGPELLKPGASVKISCKGSGYAFSNSWINWVKLRPGQGLEWIGRIYPGDGDTKYNGKFKGKATLTADKSSSTAHMQLRSLTSVDSAVYFCARFPFGKYEGPGAMDYWGQGTSVTVSS
VL: DIQMTQTTSSLSASLGDRVTISCRASQDISSYLNWYQQKPDGTIKLLIYYTSRLHSGVPSRFSGSGSGTDFSLTISNLEQEDIATYFCQQGNTLPYTFGGGTKLEIKR
notes: Mouse mAb (Method #4), cloned as murine IgG2a LALAPG; also called mAb 4.17A5
B3: antibody 3.6D12 (antibody, V domains shown)
VH: EVMLVESGGGLVRPGGSLKLSCTASGFTFSRCAMSWVRQTPEKRLEWVSAISRDSTYTYYSDSVKGRFTVSRDNAKNTLYLQMSSLRSEDTAMYYCARQIDDYYVDALDYWGQGTSVTVSS
VL: DVQITQSPSYLAASPGETITINCRASKIISKYLAWYQEKPGKTIKLLIYSGFTLQSGIPSRFSGSGSGTDFTLTISSLEPEDFAMYYCQQHNEYPLTFGAGTKLEIKR
notes: Mouse mAb (Method #3), cloned as murine IgG2a LALAPG; Early screens used hybridoma-purified antibody; also called mAb 3.6D12
B4: antibody 3.1C1 (antibody, V domains shown)
VH: QVQLQQSGPELVKPGASVRISCKASGYTFTNYFIHWVKQRPGQGLEWIGWINPGNLNTKYTEEFKGKATLTADKSSSTAYIQLNSLTSEDSAVYFCVNGNPFVYWGQGTLVTVSA
VL: DIVMTQSPSSLTVIAGEKVTLNCKSSQSLLNSGNQKKYLTWLQQKPGQPPKLLIYWTSTRDSGVPDRFTGSGSGTDFTLTISSVQAEDLAVYYCQNDYSYPLTFGAGTKLEIKR
notes: Mouse mAb, cloned as murine IgG2a LALAPG; not written separately; also called SRA-ID mAb 3.1C1
B5: antibody 3.6E10 (antibody, V domains shown)
VH: QVQLQQSGAELAKPGASVKMSCKASGYIFTSYYLHWVKQRPGQGLEWIGYINPNTGYTEYTQNFKDRATLTADKSSSTAYMQLTSLTSEDSAVYFCVNGNPFVYWGQGTLVTVSA
VL: B4 VL with I14T, A15T, L21M, N22T, K24R, K37N, L42F, D61Y
notes: Mouse mAb, cloned as murine IgG2a LALAPG
B6: antibody 4.12E5 (antibody, V domains shown)
VH: EVQLQQSGPELVKTGASVKISCKASGYSFTGYFMHWVKQSHGKSLEWIGYISCYNGASVYNQRFKGKATFTIDTSSSTAYMQFNSLTSEDSAVYYCARDVLRYPRYAVDYWGQGTSVTVSS
VL: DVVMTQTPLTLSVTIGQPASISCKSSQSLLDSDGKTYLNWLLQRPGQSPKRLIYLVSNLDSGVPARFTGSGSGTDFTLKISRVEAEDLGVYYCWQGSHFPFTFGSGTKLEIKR
notes: as for B5
B7: antibody 3.7D6 (antibody, V domains shown)
VH: QIQLVQSGPDLKKPGETVKISCRTSGYAFTNYGVNWVKQAPGKGLKWMGWINTNTGQTTYAEEFRGRFAISLETSASTAFLTISNLKNEDSATYFCARLIYDGDYISSDFWGQGTTLTVSS
VL: DIQMTQSPDSLSASVGETVTITCGASENIYGALNWYQRKQGKSPQLLIYGATNLADGMSSRFSGSRSGRQYSLKISSLHPDDVATYYCQNALSMPYTFGGGTKLEIKR
notes: Mouse mAb, cloned as murine IgG2a LALAPG; those versions are not written separately; also called PFD antibody 3.7D6

target: T1, circulating APOL1 in normal human serum; test: summary of the Examples: trypanolysis blocking as proxy for serum APOL1
Experimental: The trypanolysis assay used herein to text specificity of antibodies for serum APOL1 is as follows. Trypanosoma brucei brucei were obtained from ATCC and cultured in HMI-9 media containing IMDM (Genentech), heat-inactivated (56° C. for 30 min) FBS (Seradigm IXL9/06807/GEN), 1% serum plus (Sigma 14008C), HMI-9 (Genentech) and 1% hypoxanthine (Genentech). Trypanosome lysis was performed by treating 1×10⁵ Trypanosomes with serial dilutions of NHS or recombinant APOL1 for 16 h in a total of 100 μl. Live cell read out was done by the Alamar Blue assay as per the manufacturer's protocol, (Thermo Fisher, DAL1100). Briefly 10 μl of Alamar Blue was added to each well, incubated at 37° C. for 4 h. Red fluorescence, indicating live trypanosomes, was measured on a SpectraMax® fluorimeter powered by SoftMAX® PRO with excitation at 530 nm and emission 590 nm. For the antibody blocking assay, 1% normal human serum was preincubated with 1-10 μg/ml of anti-APOL1 antibody or media at room temperature for 20 minutes followed by addition of trypanosomes. After 16 h, the Alamar Blue assay was performed as above and background values for media only were subtracted and % blocking calculated by normalizing to no antibody control.
Trypanosoma brucei brucei were obtained under MTA from ATCC and cultured in HMI-9 media containing IMDM (Genentech), heat-inactivated (56° C. for 30 min) FBS (Seradigm IXL9/06807/GEN), 1% serum plus (Sigma 14008C), HMI-9 (Genentech) and 1% hypoxanthine (Genentech). Trypanosome lysis was performed by treating 1×10⁵ Trypanosomes with serial dilutions of NHS or recombinant APOL1 for 16 h in a total of 100 μl. Live cell read out was done by the Alamar Blue assay as per the manufacturer's protocol (30) (Thermo Fisher, DAL1100). Briefly 10 μl of Alamar Blue was added to each well, incubated at 37° C. for 4 h. Red fluorescence, indicating live trypanosomes, was measured on a SpectraMax fluorimeter powered by SoftMAX PRO with excitation at 530 nm and emission 590 nm. For the antibody blocking assay, 1% normal human serum was preincubated with 1-10 μg/ml of anti-APOL1 antibody or media at room temperature for 20 mins followed by addition of trypanosomes.

| Binder | binding result |
| --- | --- |
| B1 | binds |
| B2 | binds |
| B3 | binds |
| B4 | binds |
| B5 | binds |
| B6 | binds |

Target: T2, untagged APOL1-G0, KIK variant, …
Test: immunofluorescence on transfected COS cells, 1 µg/ml; grade

| Binder | binding result |
| --- | --- |
| B7 | binds |
| B1 | binds |
| B2 | binds |
| B3 | binds |
| B4 | binds |
| B5 | binds |
| B6 | binds |

— patent publication US20230071609A1 (Genentech, published 2023)
